Experimental findings from patent US20150361176A1 (GlaxoSmithKline, published 2015) are described below.

First the molecules themselves.
B1: DOM23h-843 (VHH)
VHH: EVQLLESGGGLVQPGGSLRLSCAASGFTFDQDRMWWVRQAPGKGLEWVSAIESGGHRTYYADSVKGRFTISRDNSKNTLYLQMNSLRAEDTAVYYCAKQNESGRSGFDYWGQGTLVTVSS
notes: human VH domain antibody (dAb), naive lead; parent of DOM23h-843-13; not shown: C-terminal FLAG tag from vector pDOM10
B2: DOM23h-439 (VHH)
VHH: EVQLLESGGGLVQPGGSLRLSCAASGFTFGTEQMWWVRQAPGKGLEWVSRIDSPGGRTYYADSVKGRFTISRDNSKNTLYLQMNSLRAEDTAVYYCAKRHAAGVSGTYFDYWGQGTLVTVSS
B3: DOM23m-101 (VHH, not shown: small tags and cut ends)
VHH: EVQLLESGGGLVQPGGSLRLSCAASGFTFSEYDMAWVRQAPGKGLEWVSRIRSDGVRTYYADSVKGRFTISRDNSKNTLYLQMNSLRAEDTAVYYCAKDRAKNGWFDYWGQGTLVTVSS
B4: DOM23m-4 (VHH, not shown: small tags and cut ends)
VHH: EVQLLESGGGLVQPGGSLRLSCAASGFTFTTYGMGWVRQAPGKGLEWVSWIEKTGNKTYYADSVKGRFTISRDNSKNTLYLQMNSLRAEDTAVYYCAKAGRHIKVRSRDFDYWGQGTLVTVSS
B5: DOM23m-71 (VHH, not shown: small tags and cut ends)
VHH: EVQLLESGGGLVQPGGSLRLSCAASGFTFMDYRMYWVRQAPGKGLEWVSGIDPTGLRTYYADSVKGRFTISRDNSKNTLYLQMNSLRAEDTAVYYCAKIKWGEMGSYKTFDYWGQGTLVTVSS
B6: DOM23m-99 (VHH, not shown: small tags and cut ends)
VHH: EVQLLESGGGLVQPGGSLRLSCAASGFTFDRYRMMWVRQAPGKGLEWVSTIDPAGMLTYYADSVKGRFTISRDNSKNTLYLQMNSLRAEDTAVYYCAKRLASRSHFDYWGQGTLVTVSS
B7: DOM23m-29 (VHH, not shown: small tags and cut ends)
VHH: EVQLLESGGGLVQPGGSLRLSCAASGFTFKRYSMGWVRQAPGKGLEWVSVINDLGSLTYYADSVKGRFTISRDNSKNTLYLQMNSLRAEDTAVYYCAKGNISMVRPGSWFDYWGQGTLVTVSS
B8: DOM23m-81 (VHH, not shown: small tags and cut ends)
VHH: EVQLLESGGGLVQPGGSLRLSCAASGFTFEPVIMGWVRQAPGKGLEWVSAIEARGGGTYYADSVKGRFTISRDNSKNTLYLQMNSLRAEDTAVYYCAKPGRHLSQDFDYWGQGTLVTVSS
B9: DOM23h-352 (VHH, not shown: small tags and cut ends)
VHH: EVQLLESGGGLVQPGGSLRLSCAASGFTFDKYKMAWVRQAPGKGLEWVSLIFPNGVPTYYANSVKGRFTISRDNSKNTLYLQMNSLRAEDTAVYYCAKYSGQGRDFDYWGQGTLVTVSS
B10: DOM23m-62 (VHH, not shown: small tags and cut ends)
VHH: EVQLLESGGGLVQPGGSLRLSCAASGFTFGQESMYWVRQAPGKGLEWVSAISGSGGSTYYADSVKGRFTISRDNSKNTLYLQMNSLRAEDTAVYYCAKSGTRIKQGFDYWGQGTLVTVSS
B11: DOM23m-72 (VHH, not shown: small tags and cut ends)
VHH: EVQLLESGGGLVQPGGSLRLSCAASGFTFMDYDMSWVRQAPGKGLEWVSMIREDGGKTYYADSVKGRFTISRDNSKNTLYLQMNSLRAEDTAVYYCAKARVPYRRGHRDNFDYWGQGTLVTVSS
B12: DOM23m-32 (VHH, not shown: small tags and cut ends)
VHH: EVQLLESGGGLVQPGGSLRLSCAASGFTFFEYPMGWVRQAPGKGLEWVSVISGDGQRTYYADSVKGRFTISRDNSKNTLYLQMNSLRAEDTAVYYCAKSHTGTVRHLETFDYWGQGTLVTVSS
B13: DOM23h-271-21 (VHH)
VHH: EVQLLESGGGLVQPGGSLRLSCAASGFTFTEYRMWWVRQAPGKGLEWVSAIEPIGNRTYYADSVKGRFTISRDNSKNTLYLQMNSLRAEDTAVYYCAKQMPGRKWTAKFRWDYWGQGTLVIVSS
notes: human VH dAb from DNA display; expressed from pDOM13
B14: DOM23h-271-27 (VHH)
VHH: B13 VHH with N56Q, R57K, M100I, K108N, F109S, W111F
notes: as for B13
B15: DOM23h-271 mutant 1D5 (K at 61, F at 64) (VHH, name in Kabat numbering)
VHH: B13 VHH with D62K, K65F, M100I, K108N, F109S, W111F, I121T
notes: human VH dAb; expressed from pDOM13; also called KF
B16: DOM23h-271 mutant 1H11 (L at 61, W at 64) (VHH, name in Kabat numbering)
VHH: B13 VHH with D62L, K65W, M100I, K108N, F109S, W111F, I121T
notes: human VH dAb; expressed from pDOM13; also called LW
B17: DOM23h-271 mutant 2C12 (D61N, K64R) (VHH, name in Kabat numbering)
VHH: B13 VHH with D62N, K65R, M100I, K108N, F109S, W111F, I121T
notes: human VH dAb; expressed from pDOM13; also called NR
B18: DOM23h-271 mutant 1E6 (R at 61, Y at 64) (VHH, name in Kabat numbering)
VHH: B13 VHH with D62R, K65Y, M100I, K108N, F109S, W111F, I121T
notes: human VH dAb; expressed from pDOM13; also called RY
B19: DOM23h-271 mutant 1G11 (R at 61, M at 64) (VHH, name in Kabat numbering)
VHH: B13 VHH with D62R, K65M, M100I, K108N, F109S, W111F, I121T
notes: human VH dAb; expressed from pDOM13; also called RM
B20: DOM23h-271 mutant 3D9 (K at 61, G at 64) (VHH, name in Kabat numbering)
VHH: B13 VHH with D62K, K65G, M100I, K108N, F109S, W111F, I121T
notes: human VH dAb; expressed from pDOM13; also called KG
B21: DOM23h-271 mutant 1D9 (R at 61, D at 64) (VHH, name in Kabat numbering)
VHH: B13 VHH with D62R, K65D, M100I, K108N, F109S, W111F, I121T
notes: human VH dAb; expressed from pDOM13; also called RD
B22: DOM23h-271 mutant 3D4 (K at 61, T at 64) (VHH, name in Kabat numbering)
VHH: B13 VHH with D62K, K65T, M100I, K108N, F109S, W111F, I121T
notes: human VH dAb; expressed from pDOM13; also called KT
B23: DOM23h-271 mutant 3F11 (R at 61, E at 64) (VHH, name in Kabat numbering)
VHH: B13 VHH with D62R, K65E, M100I, K108N, F109S, W111F, I121T
notes: human VH dAb; expressed from pDOM13; also called RE

Residue numbers refer to the chain shown, from its start. Numbers in names are those of the source. Some results are limits rather than exact numbers.

For the first test, the target named is T1, human TGF-βRII on cells (SBE-bla HEK 293T cells; A549 cells) (human, UniProt P37173 23-567). The test is described as follows: cell-based or functional assay.
T1 sequence (P37173 23-567): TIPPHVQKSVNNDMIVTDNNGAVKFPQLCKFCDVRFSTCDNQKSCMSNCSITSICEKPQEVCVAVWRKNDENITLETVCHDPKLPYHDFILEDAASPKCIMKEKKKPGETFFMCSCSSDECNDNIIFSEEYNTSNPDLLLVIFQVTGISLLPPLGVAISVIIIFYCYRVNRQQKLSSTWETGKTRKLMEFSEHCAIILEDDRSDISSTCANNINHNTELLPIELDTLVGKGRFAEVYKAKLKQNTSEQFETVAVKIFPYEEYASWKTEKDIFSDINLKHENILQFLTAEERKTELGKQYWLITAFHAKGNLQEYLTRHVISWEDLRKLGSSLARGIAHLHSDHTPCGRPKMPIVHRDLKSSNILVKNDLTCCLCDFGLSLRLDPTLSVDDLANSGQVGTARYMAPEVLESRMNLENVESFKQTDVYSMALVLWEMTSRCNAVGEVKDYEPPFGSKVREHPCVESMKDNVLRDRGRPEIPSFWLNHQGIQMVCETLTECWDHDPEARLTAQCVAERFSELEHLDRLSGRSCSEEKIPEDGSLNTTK
Regarding B1, the “Mean IC50 (nM), SBE-bla HEK 293T Cell Sensor assay (h2)” value came out at 1950 nM.
The same measure, in the same setting: the same measure for B2: 3570 nM.

The target in a further test is T1, human TGF-βRII on cells (SBE-bla HEK …). Kind of test: cell-based or functional assay. The source holds these as a separate data set.
As to B1, the “IC50 nM, Mean (SBE-bla HEK 293T cell sensor assay, h2)” value was above 9010 nM.

A further test addresses T2, mouse TGF-βRII on MC3T3-E1 cells (mouse osteoblasts) (mouse, UniProt Q62312 24-567).
T2 sequence (looked up): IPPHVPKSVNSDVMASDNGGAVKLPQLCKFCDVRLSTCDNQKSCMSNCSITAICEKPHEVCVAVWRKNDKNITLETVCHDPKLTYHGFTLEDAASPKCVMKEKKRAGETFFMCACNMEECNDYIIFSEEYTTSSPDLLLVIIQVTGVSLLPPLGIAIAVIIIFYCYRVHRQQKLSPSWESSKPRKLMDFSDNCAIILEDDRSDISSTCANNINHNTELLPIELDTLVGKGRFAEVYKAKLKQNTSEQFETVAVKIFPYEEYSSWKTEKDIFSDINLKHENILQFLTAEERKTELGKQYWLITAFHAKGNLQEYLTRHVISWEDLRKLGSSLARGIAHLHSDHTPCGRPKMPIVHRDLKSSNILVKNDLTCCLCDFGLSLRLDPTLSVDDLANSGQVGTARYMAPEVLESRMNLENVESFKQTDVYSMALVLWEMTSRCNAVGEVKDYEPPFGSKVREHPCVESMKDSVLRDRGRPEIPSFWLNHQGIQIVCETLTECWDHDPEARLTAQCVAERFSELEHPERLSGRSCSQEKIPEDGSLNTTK
Kind of test: cell-based or functional assay.
As for B3, the “max % inhibition, Average (Mouse 3T3 cell assay, method m2)” value turned out to be 48%.
With B4, the “max % inhibition, Average (Mouse 3T3 cell assay, method m1)” value was 73.3%.
Consider B5, for which the “max % inhibition, Average (Mouse 3T3 cell assay, method m1)” value stood at 44.9%.
B6: the “max % inhibition, Average (Mouse 3T3 cell assay, method m2)” value turned out to be 46.5%.
With B7, the “max % inhibition, Average (Mouse 3T3 cell assay, method m1)” value was 54.2%.
As for B8, the “max % inhibition, Average (Mouse 3T3 cell assay, method m2)” value is 30.3%.
For the molecule B9, the “max % inhibition, Average (Mouse 3T3 cell assay, method m2)” value stood at 48%.
As to B10, the “max % inhibition, Average (Mouse 3T3 cell assay, method m1)” value turned out to be 78.6%.
On the same count and under the same terms, the same measure for B11: 17.5%.
For the molecule B12, the “max % inhibition, Average (Mouse 3T3 cell assay, method m1)” value came out at 39.7%.

In the next test the target is T1, human TGF-βRII on cells (SBE-bla HEK …). Kind of test: cell-based or functional assay. This is another data set of the same source.
As to B3, the “max % inhibition, Average (SBE-bla HEK CELLSENSOR assay, h2)” value was found to be 59.8%.
Consider B4, for which the “max % inhibition, Average (Human IL-11 release, h1)” value was 70.7% and the “max % inhibition, Average (SBE-bla HEK CELLSENSOR assay, h2)” value is 69%.
As to B5, the “max % inhibition, Average (Human IL-11 release, h1)” value was -2%.
In the case of B9, the “max % inhibition, Average (SBE-bla HEK CELLSENSOR assay, h2)” value is 46.7%.
In the case of B10, the “max % inhibition, Average (Human IL-11 release, h1)” value turned out to be 79%.
For B11, the “max % inhibition, Average (Human IL-11 release, h1)” value came to 1.7%.

In the next test the target is T3, recombinant human TGF-β RII/Fc chimera protein (human, UniProt P37173 24-159).
T3 construct: range 24-159; Made in HEK-F cells; Biotinylated where it was put on SA chips, otherwise captured by anti-human IgG; also called human TGFbRII/Fc; hRII-Fc; not shown: Fc region of human IgG1
T3 sequence (P37173 24-159 limits assumed, change not shown): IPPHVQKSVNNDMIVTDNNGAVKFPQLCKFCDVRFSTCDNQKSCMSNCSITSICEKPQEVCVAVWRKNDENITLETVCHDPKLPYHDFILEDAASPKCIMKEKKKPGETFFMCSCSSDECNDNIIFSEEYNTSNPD
Kind of test: SPR Biacore, human TGFbRII-FC, 1:1 model.
As usually defined, the Kd is the free concentration of one partner at which half of the binding sites on the other are occupied at equilibrium, for simple one-to-one binding. A word on the koff: it is a measure of how fast the partners let go of each other. For orientation: kon means a measure of how fast the partners come together. Turning to B13, the Kd worked out at 0.147 nM, the koff came to 0.000472 s⁻¹ and the kon stood at 3.21e+06 M⁻¹ s⁻¹.
Turning to B14, the Kd was determined as 0.578 nM, the koff came out at 0.00126 s⁻¹ and the kon was determined as 2.17e+06 M⁻¹ s⁻¹.

A further test has as its target T3, recombinant human TGF-β RII/Fc chimera …. The test is described as follows: SPR Biacore A100, antigen-Fc captured by anti-human IgG, purified dAb, 1:1 model. Here is the method: BIACORE™ A100 analysis was carried out using a capture surface on a CM5 chip. Anti-human IgG was used as the capturing agent and coupled to a CM5 biosensor chip by primary amine coupling. The Antigen molecule fused to the human Fc was captured on this immobilised surface to a level from 200 to 300 resonance units and supernatants or purified domain antibodies were passed over this captured surface. An injection of media or buffer over the captured antigen surface was used for double referencing. On each flow cell, a protein A spot allowed to confirm the presence of domain antibody on each sample injected. […] All runs were carried out at 25° C. using HBS-EP buffer as running buffer. Data were generated using the BIACORE™ A100 and analyzed using its inherent software. Kinetics from purified samples were fitted to the 1:1 binding model while supernatant off-rates were analyzed using the 1:1 dissociation model and/or using the binding level and the stability level of each sample in comparison to the parent molecule.
A selection of mutants with improved off-rate were purified and subjected to full BIACORE™ A100 kinetic analysis to determine their affinity (Table 10). The thermal stability of the mutants was also determined by generation of melting profiles in the presence of SYPRO™ Orange (Invitrogen). Briefly, the purified dAbs were diluted to 50 and 100 ug/ml in a 1:500 dilution of SYPRO™ Orange in PBS, and subjected to a 30-90° C. melt curve in a Mini OPTICON™ PCR machine (BioRad). The Tm of the major positive transition was determined at each concentration and used to calculate an estimated Tm value at 1 mg/ml as an indication of the melting temperature for comparison (Table 10).
As to B15, the Kd was 3.69 nM.
For the molecule B16, the Kd was 4.17 nM.
As to B17, the Kd came to 3.34 nM.
On to B18, for which the dissociation constant Kd amounted to 1.17 nM.
The same measure, in the same setting: the same measure for B19: 0.97 nM; for B20: 4.34 nM; for B21: 1.17 nM.
Turning to B22, the Kd came out at 4.26 nM.
Take B23: the Kd was found to be 3.27 nM.

The target is the same in a further test. Kind of test: SPR Biacore, purified dAb; antigen taken as human TGF-β RII/Fc. On the technique in general: Surface plasmon resonance follows binding to a sensor surface in real time, without labels.
As for B1, the Kd came out at 378 nM, the koff was 0.343 s⁻¹ and the kon was determined as 905000 M⁻¹ s⁻¹.
For the molecule B2, the Kd stood at 24.2 nM, the off-rate (koff) stood at 0.0502 s⁻¹ and the kon was 2.08e+06 M⁻¹ s⁻¹.
